According to paper PMC10397247:

Experiments:
Experiment in all cases: two-hybrid library CCNG1;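 further: natural log of median RNA to DNA barcode read ratio; higher means stronger binding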
4H2438-bN = biological target: T1, 4H2438-bN
T1 chain: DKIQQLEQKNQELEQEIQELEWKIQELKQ

4H2473-bN = biological target: T2, 4H2473-bN
T2 chain: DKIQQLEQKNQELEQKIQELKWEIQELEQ

4H2503-bN = biological target: T3, 4H2503-bN
T3 chain: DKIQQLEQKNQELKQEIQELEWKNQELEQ

4H2588-bN = biological target: T4, 4H2588-bN
T4 chain: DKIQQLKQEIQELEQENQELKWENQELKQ

4H2692-bN = biological target: T5, 4H2692-bN
T5 chain: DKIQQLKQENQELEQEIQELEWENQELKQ

4H2717-bN = biological target: T6, 4H2717-bN
T6 chain: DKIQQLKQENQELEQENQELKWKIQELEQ

4H2839-bN = biological target: T7, 4H2839-bN
T7 chain: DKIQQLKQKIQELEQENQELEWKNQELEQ

4H2915-bN = biological target: T8, 4H2915-bN
T8 chain: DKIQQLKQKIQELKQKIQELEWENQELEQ

4H3057-bN = biological target: T9, 4H3057-bN
T9 chain: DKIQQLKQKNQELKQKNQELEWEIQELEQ

4H319-bN = biological target: T10, 4H319-bN
T10 chain: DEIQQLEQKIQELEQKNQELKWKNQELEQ

4H3277-bN = biological target: T11, 4H3277-bN
T11 chain: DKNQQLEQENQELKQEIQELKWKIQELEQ

4H348-bN = biological target: T12, 4H348-bN
T12 chain: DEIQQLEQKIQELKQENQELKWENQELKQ

4H3926-bH = biological target: T13, 4H3926-bH
T13 chain: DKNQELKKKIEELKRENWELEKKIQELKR

4H40-bN = biological target: T14, 4H40-bN
T14 chain: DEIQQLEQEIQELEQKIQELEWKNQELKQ

4H477-bN = biological target: T15, 4H477-bN
T15 chain: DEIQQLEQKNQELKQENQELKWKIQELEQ

4H492-bN = biological target: T16, 4H492-bN
T16 chain: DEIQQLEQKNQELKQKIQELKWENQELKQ

4H741-bN = biological target: T17, 4H741-bN
T17 chain: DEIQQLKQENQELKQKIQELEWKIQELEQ

B1: 4H2438-bN (peptide)
chain: DKIQQLEQKNQELEQEIQELEWKIQELKQ
**Q.** For B1, which interaction score (4H2438-bN) is on record?
**A.** The interaction score was 1.09.

**Q.** And the interaction score (4H2473-bN)?
**A.** Its interaction score is 1.05.

**Q.** What about the interaction score (4H2503-bN) of the same binder?
**A.** Its interaction score is 0.452.

**Q.** And the interaction score (4H2588-bN)?
**A.** The interaction score was -0.403.

**Q.** And the interaction score (4H2692-bN)?
**A.** The interaction score was -1.41.

**Q.** What about the interaction score (4H2717-bN) of the same binder?
**A.** The interaction score was -0.613.

**Q.** What about the interaction score (4H2839-bN) of the same binder?
**A.** Its interaction score is -1.05.

**Q.** And the interaction score (4H2915-bN)?
**A.** The interaction score was 2.

**Q.** And the interaction score (4H3057-bN)?
**A.** The interaction score was 2.19.

**Q.** And the interaction score (4H319-bN)?
**A.** Its interaction score is -0.63.

**Q.** And the interaction score (4H3277-bN)?
**A.** The interaction score was -0.843.

**Q.** And the interaction score (4H348-bN)?
**A.** The interaction score was -1.05.

**Q.** What about the interaction score (4H3926-bH) of the same binder?
**A.** Its interaction score is -4.14.

**Q.** What about the interaction score (4H40-bN) of the same binder?
**A.** Its interaction score is -0.693.

**Q.** What about the interaction score (4H477-bN) of the same binder?
**A.** The interaction score was 0.509.

**Q.** What about the interaction score (4H492-bN) of the same binder?
**A.** The interaction score was 0.204.

**Q.** And the interaction score (4H741-bN)?
**A.** Its interaction score is -0.278.
